Measurements: article PMC4899274

Target: triplex subunit VP23 (HSV-1) (human herpes simplex virus type 1 (HSV-1), strain KOS) (UniProt P10202)
Assay: cryo-EM structure

triplex subunit VP23 (HSV-1) (from UniProt P10202 1-318) (natural protein)
stoichiometry N: 2
